Assay results: patent publication US11274129B2, “Methods for protein tyrosine phosphorylation profiling with variant SH2 domains” (priority 2016, dated 2022)

Experiments:
[1] = target: EGFR-pTyr^978 peptide PQRpYLVIQGD; conditions: peptide EGFR-pTyr^978 PQRpYLVIQGD; read-out: equilibrium dissociation constant (Kd); cited from earlier work
[2] = target: EGFR-pTyr^1110 peptide NPVpYHNQPLN; conditions: peptide EGFR-pTyr^1110 NPVpYHNQPLN; read-out: equilibrium dissociation constant (Kd); cited from earlier work
[3] = target: MidT-pTyr^324 peptide EPQpYEEIPIYL; conditions: peptide MidT-pTyr^324 EPQpYEEIPIYL; read-out: equilibrium dissociation constant (Kd); cited from earlier work
[4] = target: VEGFR1-pTyr^1213 peptide DVRpYVNAAKF; conditions: peptide VEGFR1-pTyr^1213 DVRpYVNAAKF; read-out: equilibrium dissociation constant (Kd); cited from earlier work
Designed peptide GGpYGG = conditions: read-out: equilibrium dissociation constant (Kd); cited from earlier work
[5] = target: RSKL-pTyr^423 peptide YQHpYDLDLKD; conditions: peptide RSKL-pTyr^423 YQHpYDLDLKD; read-out: equilibrium dissociation constant (Kd); cited from earlier work
[6] = target: ShcA-pTyr^239 peptide DHQpYYNDFPG; conditions: peptide ShcA-pTyr^239 DHQpYYNDFPG; read-out: equilibrium dissociation constant (Kd); cited from earlier work
[7] = target: ShcA-pTyr^317 peptide DPSpYVNVQNL; conditions: peptide ShcA-pTyr^317 DPSpYVNVQNL; read-out: equilibrium dissociation constant (Kd); cited from earlier work
[8] = system: mixture of 54 different pTyr-including peptides derived from 54 TK activation loops; experiment: Capture of pTyr-including peptides from a mixture of TK activation loop peptides, scheduled PRM; assay type: binding
Description: Equal molar amounts (10 nmole) of the wild-type (wt) human Src SH2 domain and the DM and TrM human Src SH2 Superbinders (SEQ ID NO: 14 and 5, respectively) expressed with His6 and GST tags were used to capture pTyr-including peptides from a mixture of 54 different pTyr-including peptides (10 pmole each) derived from 54 TK activation loops. The isolated peptides were identified by PRM and quantified based on the corresponding MS peak area. 1.8% of the eluted peptides were injected into a Q-Exactive (Thermo Fisher) preceded with a nano-LC system.
Shown are the amounts of pTyr-including peptides captured, based on the corresponding peak area of PRM signal, by each of the parent human Src SH2 domain and the DM and TrM human Src SH2 Superbinders.

B1: Triple mutant: TrM human Src SH2 domain variant with Thr183Val, Cys188Ala and Lys206Leu; His6/GST-tagged form SEQ ID NO: 11 (protein)
chain: DSIQAEEWYFGKITRRESERLLLNAENPRGTFLVRESETVKGAYALSVSDFDNAKGLNVKHYLIRKLDSGGFYITSRTQFNSLQQLVAYYSKHADGLCHRLTTVCPTSK
modifications: SH2 protein domain; TrM human Src SH2 domain
[1]
  Kd: 7.7 nM
[2]
  Kd: 76 nM
[3]
  Kd: 3.8 nM
[4]
  Kd: 23 nM
Designed peptide GGpYGG
  Kd: 510 nM
[5]
  Kd: 13 nM
[6]
  Kd: 3.8 nM
[7]
  Kd: 7.5 nM
[8]; 10 nmole SH2 domain, 10 pmole each peptide
  number of the 54 pTyr-including peptides captured / detected by PRM: 54
[8]; BLK (pTyr389) IIDSEpYTAQEGAK, fragment ion b2
  PRM signal peak area: 156,244
[8]; BMX (pTyr566) YVLDDQpYVSSVGTK, fragment ion b2
  PRM signal peak area: 151,470
[8]; BTK (pTyr551) YVLDDEpYTSSVGSK, fragment ion b2
  PRM signal peak area: 1,311,693
[8]; DDR1 (pTyr796/797) NLYAGDpYpYR, fragment ion b2
  PRM signal peak area: 337,871
[8]; DDR2 (pTyr740/741) NLYSGDpYpYR, fragment ion y6
  PRM signal peak area: 184,684
[8]; EPHA1 (pTyr781) LLDDFDGTpYETQGGK, fragment ion y9
  PRM signal peak area: 188,365
[8]; EPHA2 (pTyr772) VLEDDPEATpYTTSGGK, fragment ion y11
  PRM signal peak area: 347,030
[8]; EPHA3 (pTyr779) VLEDDPEAApYTTR, fragment ion y8
  PRM signal peak area: 394,218
[8]; EPHA6 (pTyr830) VLEDDPEAApYTTTGGK, fragment ion b2
  PRM signal peak area: 287,653
[8]; EPHA8 (pTyr793) VLEDDPDAApYTTTGGK, fragment ion y11
  PRM signal peak area: 585,234
[8]; EPHB1 (pTyr778) YLQDDTSDPTpYTSSLGGK, fragment ion y10
  PRM signal peak area: 205,974
[8]; EPHB2 (pTyr780) FLEDDTSDPTpYTSALGGK, fragment ion Y3
  PRM signal peak area: 215,302
[8]; EPHB3 (pTyr792) FLEDDPSDPTpYTSSLGGK, fragment ion y10
  PRM signal peak area: 260,454
[8]; EPHB4 (pTyr774) FLEENSSDPTpYTSSLGGK, fragment ion y10
  PRM signal peak area: 134,156
[8]; ERBB2 (pTyr877) LLDIDETEpYHADGGK, fragment ion b3
  PRM signal peak area: 42,655
[8]; ERBB3 (pTyr866) QLLpYSEAK, fragment ion y2
  PRM signal peak area: 164,128
[8]; FER (pTyr714) QEDGGVpYSSSGLK, fragment ion y7
  PRM signal peak area: 27,417
[8]; FES (pTyr713) EEADGVpYAASGGLR, fragment ion y8
  PRM signal peak area: 25,101
[8]; FGFR1 (pTyr653/654) DIHHIDpYpYK, fragment ion b6
  PRM signal peak area: 51,243
[8]; FGFR2 (pTyr656/657) DINNIDpYpYK, fragment ion y4
  PRM signal peak area: 87,143
[8]; FGFR3 (pTyr647/648) DVHNLDpYpYK, fragment ion b3
  PRM signal peak area: 258,435
[8]; FGFR4 (pTyr642/643) GVHHIDpYpYK, fragment ion b3
  PRM signal peak area: 36,105
[8]; FRK (pTyr387) VDNEDIpYESR, fragment ion y6
  PRM signal peak area: 290,546
[8]; GSK3 (pTyr279/216) GEPNVSpYICSR, fragment ion y6
  PRM signal peak area: 48,337
[8]; HCK (pTyr411) VIEDNEpYTAR, fragment ion b2
  PRM signal peak area: 383,521
[8]; INSRR (pTyr1145/1146) DVYETDpYpYR, fragment ion y5
  PRM signal peak area: 20,796
[8]; ITK (pTyr512) FVLDDQpYTSSTGTK, fragment ion y11
  PRM signal peak area: 403,125
[8]; JAK1 (pTyr1034/1035) EpYpYTVK, fragment ion y2
  PRM signal peak area: 109,611
[8]; JAK2 (pTyr221) IQDpYHILTR, fragment ion Y3
  PRM signal peak area: 85,513
[8]; JAK3 (pTyr980/981) DpYpYVVR, fragment ion y2
  PRM signal peak area: 19,712
[8]; KIT (pTyr823) NDSNpYVVK, fragment ion b2
  PRM signal peak area: 234,665
[8]; LMTK2 (pTyr295) EDpYIETDDK, fragment ion b2
  PRM signal peak area: 20,896
[8]; LMTK3 (pTyr296/297) EDpYpYLTPER, fragment ion y3
  PRM signal peak area: 375,974
[8]; MERTK (pTyr753/754) IYSGDpYpYR, fragment ion b2
  PRM signal peak area: 26,483
[8]; MET (pTyr1234/1235) EpYpYSVHNK, fragment ion y2
  PRM signal peak area: 111,218
[8]; MUSK (pTyr755/756) NIYSADpYpYK, fragment ion y2
  PRM signal peak area: 178,086
[8]; NTRK1 (pTyr680/681) DIYSTDpYpYR, fragment ion b2
  PRM signal peak area: 103,368
[8]; NTRK2 (pTyr706/707) DVYSTDpYpYR, fragment ion y4
  PRM signal peak area: 114,762
[8]; PGFRB (pTyr857) DSNpYISK, fragment ion y2
  PRM signal peak area: 398,271
[8]; PTK7 (pTyr960/961) DVYNSEpYpYHFR, fragment ion b2
  PRM signal peak area: 8,863
[8]; RET (pTyr905) DVYEEDSpYVK, fragment ion b2
  PRM signal peak area: 882,529
[8]; RON (pTyr1238/1239) EpYpYSVQQHR, fragment ion y4
  PRM signal peak area: 44,290
[8]; ROR1 (pTyr645/646) EIYSADpYpYR, fragment ion y6
  PRM signal peak area: 177,244
[8]; ROR2 (pTyr645/646) EVYAADpYpYK, fragment ion y5
  PRM signal peak area: 334,295
[8]; SRC (pTyr419) LIEDNEpYTAR, fragment ion b2
  PRM signal peak area: 99,515
[8]; SRMS (pTyr380) DDIpYSPSSSSK, fragment ion y8
  PRM signal peak area: 478,598
[8]; TEC (pTyr519) YVLDDQpYTSSSGAK, fragment ion b2
  PRM signal peak area: 781,110
[8]; TIE1 (pTyr1007) GEEVpYVK, fragment ion b2
  PRM signal peak area: 409,242
[8]; TIE2 (pTyr992) GQEVpYVK, fragment ion b2
  PRM signal peak area: 209,701
[8]; TXK (pTyr420) YVLDDEpYVSSFGAK, fragment ion b2
  PRM signal peak area: 271,650
[8]; TYK2 (pTyr1054/1055) AVPEGHEpYpYR, fragment ion y6
  PRM signal peak area: 53,473
[8]; VGFR1 (pTyr1053) NPDpYVR, fragment ion y3
  PRM signal peak area: 158,244
[8]; VGFR2 (pTyr1059) DPDpYVR, fragment ion Y3
  PRM signal peak area: 196,659
